These results are taken from publication PMC12569377, “P-Rex1 limits the agonist-induced internalization of GPCRs independently of its Rac-GEF activity” (Cell Reports, 2025).

For one assay, the target named is T1, GST-Grk2 (Homo sapiens, UniProt P25098).
T1 construct: recombinant GST fusion from Sf9 cells, commercial
T1 sequence (P25098 1-689): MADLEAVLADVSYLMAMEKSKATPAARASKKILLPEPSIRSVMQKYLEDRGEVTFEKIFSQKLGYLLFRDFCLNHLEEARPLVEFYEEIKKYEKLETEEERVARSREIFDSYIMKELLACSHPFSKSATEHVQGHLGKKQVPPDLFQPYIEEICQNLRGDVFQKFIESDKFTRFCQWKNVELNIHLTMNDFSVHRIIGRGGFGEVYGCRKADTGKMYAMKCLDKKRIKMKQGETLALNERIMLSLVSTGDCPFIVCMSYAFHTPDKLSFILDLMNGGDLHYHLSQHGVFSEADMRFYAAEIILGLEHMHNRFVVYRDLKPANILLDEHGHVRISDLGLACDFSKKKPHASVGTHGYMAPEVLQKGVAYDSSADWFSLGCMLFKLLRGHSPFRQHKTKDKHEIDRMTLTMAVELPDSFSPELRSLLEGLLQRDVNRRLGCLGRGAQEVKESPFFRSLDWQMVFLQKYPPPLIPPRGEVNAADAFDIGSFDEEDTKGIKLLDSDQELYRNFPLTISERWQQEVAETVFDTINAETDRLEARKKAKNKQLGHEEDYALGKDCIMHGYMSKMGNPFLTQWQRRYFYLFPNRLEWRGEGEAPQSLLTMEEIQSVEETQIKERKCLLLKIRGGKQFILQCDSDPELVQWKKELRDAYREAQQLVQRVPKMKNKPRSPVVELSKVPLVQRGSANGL
Briefly: ADP-Glo kinase assay with tubulin. In kind it is biochemical. As to conditions: […] ATP, […] pig brain tubulin, […] MgCl2, pH […] °C; no P-Rex1. A general note: In ADP-Glo the light output rises with the ADP produced.

Assay [1] has as its target T2, Recombinant human wild type EE-P-Rex1 (human, UniProt Q8TCU6 1-1659).
T2 construct: source: baculovirus-infected Sf9 cells, purified using the EE tag
Briefly: pull-down; as the GST-Grk2 pull-down of EE-P-Rex1, with increasing concentrations of prenylated EE-Gβ1γ2 (up to 20 pmol per sample) added during the binding assay; 0.008% cholate in all samples. The conditions noted are these: both partners purified.

The target in assay [2] is T3, Recombinant human wild type His-P-Rex2 (human, UniProt Q70Z35 1-1606).
T3 construct: source: baculovirus-infected Sf9 cells, purified (Ni-NTA agarose, PD-10 desalting); not shown: 6His, N-terminal, kept
T3 sequence (Q70Z35 whole entry): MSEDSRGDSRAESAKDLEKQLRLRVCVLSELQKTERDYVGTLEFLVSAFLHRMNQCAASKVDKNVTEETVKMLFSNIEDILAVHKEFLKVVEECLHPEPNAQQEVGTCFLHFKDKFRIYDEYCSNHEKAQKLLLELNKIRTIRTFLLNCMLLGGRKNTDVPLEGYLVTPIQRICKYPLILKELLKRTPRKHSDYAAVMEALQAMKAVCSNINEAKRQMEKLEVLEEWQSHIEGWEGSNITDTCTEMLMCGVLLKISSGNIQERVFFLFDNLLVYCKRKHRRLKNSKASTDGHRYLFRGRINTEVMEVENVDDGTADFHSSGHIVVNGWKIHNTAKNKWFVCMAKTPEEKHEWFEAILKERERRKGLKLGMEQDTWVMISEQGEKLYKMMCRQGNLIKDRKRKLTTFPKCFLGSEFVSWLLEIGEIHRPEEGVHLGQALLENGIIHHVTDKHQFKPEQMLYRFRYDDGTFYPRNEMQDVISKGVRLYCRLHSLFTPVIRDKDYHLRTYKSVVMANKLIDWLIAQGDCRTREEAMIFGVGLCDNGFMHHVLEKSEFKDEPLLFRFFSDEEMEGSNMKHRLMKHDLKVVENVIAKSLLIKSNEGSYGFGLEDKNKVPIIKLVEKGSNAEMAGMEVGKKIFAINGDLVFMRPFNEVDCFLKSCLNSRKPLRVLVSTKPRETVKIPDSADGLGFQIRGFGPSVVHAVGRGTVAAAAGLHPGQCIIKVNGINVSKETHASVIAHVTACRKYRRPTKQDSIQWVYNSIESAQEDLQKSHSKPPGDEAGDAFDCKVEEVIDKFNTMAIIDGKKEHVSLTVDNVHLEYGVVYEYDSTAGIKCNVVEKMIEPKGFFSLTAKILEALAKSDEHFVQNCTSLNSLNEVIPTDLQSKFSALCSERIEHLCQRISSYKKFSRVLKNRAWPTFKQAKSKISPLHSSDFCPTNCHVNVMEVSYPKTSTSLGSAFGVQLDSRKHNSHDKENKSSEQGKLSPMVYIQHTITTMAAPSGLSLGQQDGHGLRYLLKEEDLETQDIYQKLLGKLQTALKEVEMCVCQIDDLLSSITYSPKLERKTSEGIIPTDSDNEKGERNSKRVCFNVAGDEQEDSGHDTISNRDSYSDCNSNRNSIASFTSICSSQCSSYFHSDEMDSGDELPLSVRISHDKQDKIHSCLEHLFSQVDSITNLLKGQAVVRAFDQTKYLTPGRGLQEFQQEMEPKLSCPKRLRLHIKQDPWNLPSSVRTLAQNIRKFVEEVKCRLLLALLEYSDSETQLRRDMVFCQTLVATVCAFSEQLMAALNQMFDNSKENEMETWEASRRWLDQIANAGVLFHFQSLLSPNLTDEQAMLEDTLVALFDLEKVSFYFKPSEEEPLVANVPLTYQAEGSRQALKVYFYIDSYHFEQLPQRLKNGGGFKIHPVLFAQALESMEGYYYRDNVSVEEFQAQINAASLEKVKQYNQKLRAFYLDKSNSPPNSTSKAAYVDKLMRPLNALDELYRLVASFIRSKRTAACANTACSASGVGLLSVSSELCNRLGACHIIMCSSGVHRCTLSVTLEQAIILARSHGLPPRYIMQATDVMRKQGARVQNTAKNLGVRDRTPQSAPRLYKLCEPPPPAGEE
Briefly: pull-down; 5 pmol P-Rex1 or P-Rex2 protein (2.5 pmol for P-Rex1 mutants) with 5 pmol GST, GST-Grk2 or GST-Grk5 in 20 μL detergent-free buffer (50 mM HEPES pH 7.2, 150 mM NaCl), 1 h on ice; GST proteins isolated on magnetic glutathione agarose, 45 min at 4°C, 4 washes in lysis buffer 2 (1% NP-40); western blot with P-Rex1 or P-Rex2 and GST antibodies. The conditions noted are these: both partners purified. (Immunoblotting shows a protein as a band on a membrane.)

The target of assay [3] is T4, GEF-dead EE-P-Rex1 (E56A, N238A) (human, UniProt Q8TCU6 1-1659, E56A | N238A).
T4 construct: P-Rex1, human, with point mutations E56A and N238A in the DH domain that abolish Rac-GEF activity; also called GEF-dead P-Rex1; source: baculovirus-infected Sf9 cells, purified using the EE tag
T4 sequence (Q8TCU6 whole entry E56A/N238A, the tested form may be a part): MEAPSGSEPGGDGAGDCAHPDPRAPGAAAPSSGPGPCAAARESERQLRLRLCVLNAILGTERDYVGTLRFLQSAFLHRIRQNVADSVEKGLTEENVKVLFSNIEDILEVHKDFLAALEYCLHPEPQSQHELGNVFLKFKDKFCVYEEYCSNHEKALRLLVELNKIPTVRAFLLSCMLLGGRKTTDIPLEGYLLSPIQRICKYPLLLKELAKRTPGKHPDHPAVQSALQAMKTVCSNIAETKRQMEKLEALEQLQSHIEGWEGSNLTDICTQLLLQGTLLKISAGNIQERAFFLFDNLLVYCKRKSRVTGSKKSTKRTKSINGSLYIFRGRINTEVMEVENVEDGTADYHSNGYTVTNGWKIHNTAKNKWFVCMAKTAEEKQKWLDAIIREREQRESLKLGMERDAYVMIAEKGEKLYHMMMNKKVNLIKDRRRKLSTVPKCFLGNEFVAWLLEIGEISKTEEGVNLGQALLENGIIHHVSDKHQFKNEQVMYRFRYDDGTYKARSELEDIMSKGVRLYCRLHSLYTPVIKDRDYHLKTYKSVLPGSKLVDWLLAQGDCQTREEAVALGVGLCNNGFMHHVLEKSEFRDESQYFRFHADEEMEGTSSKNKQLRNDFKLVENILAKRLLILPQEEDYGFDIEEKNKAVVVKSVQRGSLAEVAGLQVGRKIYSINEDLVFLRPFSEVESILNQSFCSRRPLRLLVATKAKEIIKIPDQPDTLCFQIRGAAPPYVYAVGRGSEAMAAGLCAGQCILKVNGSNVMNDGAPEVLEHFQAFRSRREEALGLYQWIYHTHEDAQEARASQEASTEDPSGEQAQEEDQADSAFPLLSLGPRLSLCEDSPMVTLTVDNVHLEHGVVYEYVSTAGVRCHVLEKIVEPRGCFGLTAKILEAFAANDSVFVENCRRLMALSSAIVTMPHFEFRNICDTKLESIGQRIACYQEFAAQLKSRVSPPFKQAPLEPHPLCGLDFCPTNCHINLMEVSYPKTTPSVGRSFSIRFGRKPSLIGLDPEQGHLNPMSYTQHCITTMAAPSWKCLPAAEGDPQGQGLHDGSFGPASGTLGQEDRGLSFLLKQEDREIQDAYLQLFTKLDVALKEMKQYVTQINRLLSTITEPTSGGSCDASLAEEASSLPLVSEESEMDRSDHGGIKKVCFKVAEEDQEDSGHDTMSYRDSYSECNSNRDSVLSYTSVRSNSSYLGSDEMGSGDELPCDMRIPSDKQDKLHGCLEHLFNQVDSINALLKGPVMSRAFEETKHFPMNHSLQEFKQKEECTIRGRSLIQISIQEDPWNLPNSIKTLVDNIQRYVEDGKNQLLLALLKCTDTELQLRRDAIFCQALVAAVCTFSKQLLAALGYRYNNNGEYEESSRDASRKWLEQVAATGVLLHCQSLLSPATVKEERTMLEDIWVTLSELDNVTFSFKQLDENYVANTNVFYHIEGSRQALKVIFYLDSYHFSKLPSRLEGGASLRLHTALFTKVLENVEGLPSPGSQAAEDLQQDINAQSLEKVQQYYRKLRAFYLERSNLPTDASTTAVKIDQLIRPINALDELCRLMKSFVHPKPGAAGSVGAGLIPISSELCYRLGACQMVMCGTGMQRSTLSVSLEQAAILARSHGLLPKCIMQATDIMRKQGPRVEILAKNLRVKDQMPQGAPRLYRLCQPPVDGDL
The assay is described as above. As to conditions: both partners purified.

The target in assay [4] is T5, GEF-dead His-P-Rex2 (P-Rex2 E30A,N212A) (human, UniProt Q70Z35 1-1606, E30A | N212A).
T5 construct: P-Rex2, human, with alanine mutations at Glu30 and Asn212 in the catalytic DH domain; also called GEF-dead P-Rex2; source: baculovirus-infected Sf9 cells, purified (Ni-NTA agarose, PD-10 desalting); not shown: 6His, N-terminal, kept
T5 sequence (Q70Z35 whole entry E30A/N212A, the tested form may be a part): as the sequence (Q70Z35 whole entry) above, with E30A, N212A counted along it
The assay is described as above. As to conditions: both partners purified.

T2 sequence (Q8TCU6 whole entry): as the sequence (Q8TCU6 whole entry E56A/N238A, the tested form may be a part) above, with A56E, A238N counted along it

In the case of `Nc1ncnc2c1ncn2[C@@H]1O[C@H](COP(=O)(O)OP(=O)(O)OP(=O)(O)O)[C@@H](O)[C@H]1O` [ATP], the “ADP-Glo kinase assay with tubulin” value at GST-Grk2 is given as “GST-Grk2 was able to phosphorylate tubulin”.

B1: Recombinant human GST-Grk2 (enzyme, UniProt P25098 1-689, looked up)
chain: T1 sequence (P25098 1-689)
notes: G protein-coupled receptor kinase 2 (Grk2), human, Sf9 cell-derived recombinant GST fusion; also called G protein-coupled receptor kinase 2; source: bought: Abcam (ab125620), Sf9 cell-derived, purified recombinant
Consider B1, for which the binding result in assay [1], in assay [2], in assay [3] and in assay [4] was “binds” throughout.
